Reference: patent US20240294650A1 (Alector, published 2024)

Legend:
[1] = target: T1, endogenous murine MerTK on bone marrow-derived macrophages (mouse, UniProt Q60805 19-994); assay: FACS, mouse BMDM, WT minus MerTK KO
T1 construct: whole, on cells; MFI on MerTK KO BMDM subtracted; also called BMDM WT-KO
T1 sequence (looked up): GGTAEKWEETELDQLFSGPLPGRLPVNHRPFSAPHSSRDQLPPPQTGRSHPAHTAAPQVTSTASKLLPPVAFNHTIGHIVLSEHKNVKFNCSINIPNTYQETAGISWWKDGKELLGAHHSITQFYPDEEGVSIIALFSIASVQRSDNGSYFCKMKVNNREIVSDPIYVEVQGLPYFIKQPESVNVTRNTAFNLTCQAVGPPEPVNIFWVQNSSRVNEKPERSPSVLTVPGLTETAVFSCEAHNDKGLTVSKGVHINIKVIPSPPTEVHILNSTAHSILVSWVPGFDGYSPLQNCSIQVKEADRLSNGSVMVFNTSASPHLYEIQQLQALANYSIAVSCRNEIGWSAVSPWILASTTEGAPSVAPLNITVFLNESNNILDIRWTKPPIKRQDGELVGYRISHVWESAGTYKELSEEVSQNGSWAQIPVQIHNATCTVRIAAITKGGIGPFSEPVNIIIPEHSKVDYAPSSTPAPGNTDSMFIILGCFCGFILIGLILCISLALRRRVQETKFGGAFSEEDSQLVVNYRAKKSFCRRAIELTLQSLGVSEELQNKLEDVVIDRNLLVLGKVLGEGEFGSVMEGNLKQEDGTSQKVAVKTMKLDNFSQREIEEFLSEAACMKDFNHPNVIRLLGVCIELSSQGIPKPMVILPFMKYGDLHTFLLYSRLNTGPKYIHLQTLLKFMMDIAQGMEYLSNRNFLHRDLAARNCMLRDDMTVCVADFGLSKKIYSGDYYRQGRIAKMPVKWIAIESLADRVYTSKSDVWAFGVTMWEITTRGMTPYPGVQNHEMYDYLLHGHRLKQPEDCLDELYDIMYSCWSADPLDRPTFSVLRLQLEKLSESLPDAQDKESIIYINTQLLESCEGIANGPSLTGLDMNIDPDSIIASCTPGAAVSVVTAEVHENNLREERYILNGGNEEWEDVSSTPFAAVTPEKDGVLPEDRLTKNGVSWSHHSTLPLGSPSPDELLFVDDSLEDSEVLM
Protocol: (§1) To determine whether recombinant anti-human MerTK antibodies of the present disclosure bind to human MerTK endogenously expressed on SK-MEL-5 cells and CHO cells overexpressing mouse MerTK (CHO-muMerTK OE cells), as compared to A375 and parental CHO cells as negative controls, the following experiments were performed. SK-MEL-5 cells, A375 cells, CHO-muMerTK OE cells, and CHO parental cells were plated at 100,000 cells/well. Anti-MerTK antibodies were added to the cells at 10 μg/ml. After 60 minutes on ice, cells were washed and then stained with PE-conjugated goat anti-human IgG antibody (Southern Biotech Cat #2040-09, Birmingham, AL) in the presence of Fc block solution on ice for 30 minutes, and then washed twice with cold FACS buffer (2% FBS in PBS). Mouse anti-human MerTK-PE conjugated (Biolegend, Clone 590H11G1E3) or anti-mouse MerTK-PE conjugated (ThermoFisher, Clone DS5MMER) antibodies were used as positive controls. Stained cells were acquired on a BD FACS Canto II cytometer and the mean fluorescence intensity (MFI) was calculated with FlowJo.
To confirm anti-MerTK antibody binding to endogenous murine MerTK, bone marrow-derived macrophages (BMDM) were isolated from MerTK wild type (WT) and knockout (KO) mice (The Jackson Laboratory, Cat #011122) using standard protocols. Briefly, cells isolated from the bone marrow were plated in the presence of 50 ng/ml M-CSF (R&D Systems, Cat #416-ML) for seven days to allow for differentiation into macrophages. Cell staining, FACs, and MFI were performed and calculated as described above.

[2] = target: T2, mouse MerTK overexpressed on CHO cells (mouse, UniProt Q60805 19-994); assay: FACS, CHO-muMerTK OE cells, 10 ug/ml
T2 construct: whole, on cells; also called CHO-muMerTK OE
T2 sequence (looked up): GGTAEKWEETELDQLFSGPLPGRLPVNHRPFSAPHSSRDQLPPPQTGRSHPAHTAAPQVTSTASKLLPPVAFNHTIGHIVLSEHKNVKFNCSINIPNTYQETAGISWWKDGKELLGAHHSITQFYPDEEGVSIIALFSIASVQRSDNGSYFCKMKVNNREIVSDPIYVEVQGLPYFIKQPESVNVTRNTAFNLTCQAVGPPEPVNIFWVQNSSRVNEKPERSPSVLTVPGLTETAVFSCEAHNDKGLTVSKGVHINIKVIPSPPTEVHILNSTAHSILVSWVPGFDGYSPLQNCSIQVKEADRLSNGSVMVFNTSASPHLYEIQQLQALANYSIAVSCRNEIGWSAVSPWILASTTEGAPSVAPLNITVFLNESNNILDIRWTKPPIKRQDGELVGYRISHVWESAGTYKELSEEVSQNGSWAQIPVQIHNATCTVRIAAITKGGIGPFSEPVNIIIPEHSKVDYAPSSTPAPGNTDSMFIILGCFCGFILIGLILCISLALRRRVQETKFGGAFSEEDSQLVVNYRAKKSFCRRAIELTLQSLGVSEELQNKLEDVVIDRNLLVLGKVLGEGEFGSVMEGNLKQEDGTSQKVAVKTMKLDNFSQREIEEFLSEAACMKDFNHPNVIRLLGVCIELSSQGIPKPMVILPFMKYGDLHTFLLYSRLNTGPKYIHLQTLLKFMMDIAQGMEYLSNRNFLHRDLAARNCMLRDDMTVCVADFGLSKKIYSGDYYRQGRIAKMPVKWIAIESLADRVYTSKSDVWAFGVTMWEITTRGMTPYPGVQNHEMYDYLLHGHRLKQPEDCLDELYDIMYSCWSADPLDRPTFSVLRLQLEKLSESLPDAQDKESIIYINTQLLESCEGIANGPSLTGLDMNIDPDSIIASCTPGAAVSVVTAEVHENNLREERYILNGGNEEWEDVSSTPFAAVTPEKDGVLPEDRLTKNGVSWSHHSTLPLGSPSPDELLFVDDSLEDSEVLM
Protocol: as §1

| Binder | MFI [1] | MFI [2] |
| --- | --- | --- |
| MTK-222 (antibody, human IgG1, V domains shown) VH: QVQLQQSGADLMKPGASVKLSCKATGYTFTGYWIEWVKQRPGHGLEWIGEILTGSGSSNYNEKFKGKATFTADSSSNTAFMQLSSLTTEDSAIYYCAGSYYSNSWFPYWGQGSLVTVSA VL: DIVLTQSPVSLAVSLGQRATISCRASESVDSYGSSFMHWYQQKPGQPPKLLIYRASSLESGIPARFSGSGSRTDFTLTINPVETDDVATYYCQQSNEDPRTFGGGTKLEIK | 3680 MFI | 4760 MFI |
| MTK-225 (antibody, human IgG1, V domains shown) VH: EVQLQQSGPELVKPGASVKIFCKASGYTFTAYNMDWVKQSHGKSLEWIGDINPNNGGTIYNQKFKGKATLTVDKSSSTAYMELRSLTSEDTAVYYCARRRRYGNTYYWYFDVWGTGTTVTVSS VL: DIQMTQSPASLSVSVGETVTITCRASENIYSSLAWYQQKQGKSPQLLVYAATNLADGVPSRFSGSGSGTQFYLKINGLQSEDFGSYYCQHFWGTSYTFGGGTKLEIK | 619 MFI | 285 MFI |
| MTK-224 (antibody, human IgG1, V domains shown) VH: QVQLQQPGAELVKPGASVKVSCKASGYTFTSYWMHWVKQRPGQGLEWIGRIHPFDSDTNYNQKFKGKATLTVDKSSSTAYMQLSSLTSEDSAVYYCSIAGFAYWGQGTLVTVSA VL: DIVMTQSPATLSVTPGDRVSLSCRASQIISDYLNWYQQKSHESPRLLIKYASQSISGIPSRFSGSGSGSDFTLSINSVEPEDVGVYYCQNGHSFPLTFGAGTKLELK | 1860 MFI | 616 MFI |
| MTK-209 (antibody, human IgG1, V domains shown) VH: QVQLQQPGAELVKPGASVKVSCKASGYTFTNYWIHWVKQRPGQGLEWIGRIHPFDSEPNYNQKFKGKATLTVDKSSSTAYMHLTSLTSEDSAVYYCALASFAYWGQGTLVTVSA VL: ETTVTQSPASLSMAMGEKATIRCITSTDIDDKMNWYQQKPGKPPKLLISAGNTLRPGVPSRFSSSGYGTDFVLTVENMLSEDVADYYCLQGGALPLTFGSGTKLEIK | 813 MFI | 1220 MFI |
| MTK-231 (antibody, human IgG1, V domains shown) VH: DVQLQESGPGLVKPSQSLSLTCSVTGYSITSGYYWNWIRQFPGNKLEWMGYISYDGTYNYHPSLKNRISITRDTSKNQFFLTLNSVTTEDTATFYCTRGGGYWGQGTSVTVSS VL: DVVMTQTPLSLPVSLGDQASISCRSSQSLVHSDGNTYLHWYLQKPGQSPKLLIYKVSNRFSGVPDRFSGSGSGTDFTLKISRLEAEDLGIYFCSQTTHIPLTFGSGTKLEIK | 639 MFI | 594 MFI |
| MTK-203 (antibody, human IgG1, V domains shown) VH: QVQLQQPGAELVKPGASVKVSCKASGYTFTNYWMHWVKQRPGQGLEWIGRIHPFDTETNDNQKFKGKATLTVDKSSSTAYMQLSSLTSEDSAVYYCVIPANGGFAYWGQGTLVTVSA VL: ETTVTQSPASLSVATGEKVTIRCITSTDIGDDMNWYQQKPGEPPKVLISEGNSLRPGVPSRFSSSGYGTDFVFTIENTLSEDVADYFCLQSDNLPLTFGSGTKLEIK | 2980 MFI | 2080 MFI |
| MTK-207 (antibody, human IgG1, V domains shown) VH: QVQLKESGPGLVAPSQSLSITCTVSGISLTSYGVSWVRQPPGKGLEWLGIIWGDGSTNYHSALISRLSISKDNSKSQVFLKLNSLQTDDTATYYCAKGRYGNYEDWYFDVWGTGTTVTVSS VL: DIQMTQSPASLSASVGETVTITCRASGNIHNYLAWYQQKQGKSPQLLVYNAKTLAAGVPSRFSGSGSGTQYSLKINSLQPEDFGSYYCQHFWSIPLTFGAGTKLELK | 989 MFI | 279 MFI |
| MTK-230 (antibody, human IgG1, V domains shown) VH: EVQLQQSGPELVKPGASVRIPCKASGYTFSDYNMDWVKQSHGKSLEWIGNINPNIGGTIYSQKFKGKATLTVDKSSSTAYMELRSLTSEDTAVYYCARGDYGFASWGQGTLVTVSA VL: DIVLTQSPASLTVSLGQRATISCRASRSVSTSGYSYMHWYQQKPGQPPKLLIYLASNLESGVPARFSGSRSGTDFTLNIHPVEEEDAATYYCQHSREYPFTFGSGTKLEIK | 9120 MFI | 12400 MFI |
| MTK-212 (antibody, human IgG1, V domains shown) VH: QVQLQQSGPELVKPGASVKISCKASGYAFSSSWVNWVKQRPGKGLEWIGRIYPGDGDSNYNGNFKGKATLTADKSSNTAYLQLSSLTSEDSAVYFCARKSHFIYYTLDYWGQGTPVTVSS VL: DIVMTQSHKFKSTSVGDRVSIACKASQDVGTSVAWYQQKPGKSPKLLIYWASSRHTGVPDRFTGSGSGTDFTLTISNVQSEDLTDYFCQQYSTYPYTFGGGTKLEIK | 9090 MFI | 12800 MFI |
| MTK-202 (antibody, human IgG1, V domains shown) VH: EVQLVESGGGLVKPGGSLKLSCAASGFTFSDFGMHWVRQVPEKGLEWVAFISGGSNTIYYTDTVKGRFTISRDNAKNTLFLQMTSLRSEDTAMYYCVRNGNSFAYWGQGTLVTVSA VL: NIMMTQSPSSLAVSAGEKVTMNCKSSQSVLYSSNQKNYLAWYQQKPGQSPKLLIYWASTRESGVPDRFTGSGSGTDFTLTISNIQAEDLAIYYCHQYFFSWTFGGGTKLEIK | 4510 MFI | 4410 MFI |
| MTK-204 (antibody, human IgG1, V domains shown) VH: EVQLVESGGGLVKPGGSLKLSCAASGFTFSDYGMHWVRQAPEKGLEWVAYISSGTSTIYYEDTVKGRFTISRDNAKNTLFLQMTSLRSEDTAMYYCARGGLLFDYWGQGTTLTVSS VL: NIMMTQSPSSLAVSAGEKVTMSCKSSQSVLYSSNQKNYLAWYQQKPGQSPKLLIQWASTRESGVPDRFTGSGSETDFTLTIRSVQAEDLAVYYCHQYFSSWTFGGGTKLEIK | 602 MFI | 713 MFI |
